Measured values: the supplement of paper PMC7877785
± gives the uncertainty stated by the source.

Assay: self-splicing fitness, log relative to wild type (ln ratio); higher = more splicing; Tetrahymena group I intron in knt gene, E. coli kanamycin selection, DiMSum; sequences stand for … in CUCUCU…GGAGGGAAAAGUUAUCAGGCAUGCACCUGGUAGCUAGUCUUUAAACCAAUAGAUUGCAUCGGUUUAAAAGGCAAGACCGUCAAAUUGCGGGAAAGGGGUCAACAGCCGUUCAGUACCAAGUCUCAGGGGAAACUUUGAGAUGGCCUUGCAAAGGGUAUGGUAAUAAGCUGACGGACAUGGUCCUAACCACGCAGCCAAGUCCUAAGUCAACAGAUCUUCUGUUGAUAUGGAUGCAGUUCACAGACUAAAUGUCGGUCGGGGAAGAUGUAUUCUUCUCAUAAGAUAUAGUCGGACCUCUCCUUAAUGGGAGCUAGCGGAUGAAGUGAUGCAACACUGGAGCCGCUGGGAACUAAUUUGUAUGCGAAAGUAUAUUGAUUAGUUUUGGAGUACUCGUGGUCG
How it was run: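 Colonies from six replicate transformations of E. coli BL21(DE3) were pooled and amplicon-sequenced on an Illumina HiSeq 2500. The library placed an intron with all eight P1ex-region nucleotides randomised inside the knt kanamycin-resistance gene on pET-22b(+), and cells grew overnight at 37°C or 30°C on LB agar with or without 25 μg/mL kanamycin (plus 100 μg/mL carbenicillin, 50 μM IPTG, 0.2% rhamnose). Fitness is the DiMSum error-weighted combination of wild-type-normalised replicate fold changes, kanamycin versus none.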

**Q.** Which “self-splicing fitness (ln)” value (30 °C) does the source give for UUUGAGCAAUAUUACGGUCC here?
**A.** -3.88 ± 0.28

**Q.** What about the “self-splicing fitness (ln)” value (37 °C) of the same sequence?
**A.** -1.8 ± 0.23

**Q.** Which “self-splicing fitness (ln)” value (37 °C) does the source give for UUUGAGCAAUAUUACGGUCU here?
**A.** -2.63 ± 0.41

**Q.** Which “self-splicing fitness (ln)” value (30 °C) does the source give for UUUGAGCAAUAUUACGGUGG here?
**A.** -2.98 ± 0.31

**Q.** For UUUGAGCAAUAUUACGGUUU, which “self-splicing fitness (ln)” value (30 °C) is on record?
**A.** -3.23 ± 0.48

**Q.** What about the “self-splicing fitness (ln)” value (37 °C) of the same sequence?
**A.** -1.92 ± 0.32

**Q.** For UUUGAGCAAUAUUACGUAAU, which “self-splicing fitness (ln)” value (30 °C) is on record?
**A.** -3.94 ± 0.43

**Q.** And the “self-splicing fitness (ln)” value (37 °C)?
**A.** -1.65 ± 0.23

**Q.** For UUUGAGCAAUAUUACGUCAA, which “self-splicing fitness (ln)” value (30 °C) is on record?
**A.** -1.66 ± 0.21

**Q.** What about the “self-splicing fitness (ln)” value (37 °C) of the same sequence?
**A.** -2.66 ± 0.37

**Q.** With UUUGAGCAAUAUUACGUCGC as the sequence, how does the “self-splicing fitness (ln)” value (30 °C) read?
**A.** -3.06 ± 0.49

**Q.** And the “self-splicing fitness (ln)” value (37 °C)?
**A.** -2.07 ± 0.47

**Q.** Which “self-splicing fitness (ln)” value (30 °C) does the source give for UUUGAGCAAUAUUACGUGUG here?
**A.** -3.37 ± 0.23

**Q.** And the “self-splicing fitness (ln)” value (37 °C)?
**A.** -2.55 ± 0.33

**Q.** Which results are given for UUUUAGCAAUAUUACGAAAU?
**A.** self-splicing fitness (ln) (30 °C): -2.34 ± 0.34; self-splicing fitness (ln) (37 °C): -1.72 ± 0.27

**Q.** With UUUUAGCAAUAUUACGACUG as the sequence, how does the “self-splicing fitness (ln)” value (30 °C) read?
**A.** -0.652 ± 0.097

**Q.** And the “self-splicing fitness (ln)” value (37 °C)?
**A.** -0.152 ± 0.13

**Q.** With UUUUAGCAAUAUUACGAGGG as the sequence, how does the “self-splicing fitness (ln)” value (30 °C) read?
**A.** -2.9 ± 0.42

**Q.** Which “self-splicing fitness (ln)” value (30 °C) does the source give for UUUUAGCAAUAUUACGAUAU here?
**A.** -2.66 ± 0.22

**Q.** And the “self-splicing fitness (ln)” value (37 °C)?
**A.** -1.42 ± 0.28

**Q.** Which results are given for UUUUAGCAAUAUUACGCAUG?
**A.** self-splicing fitness (ln) (30 °C): -1.3 ± 0.12; self-splicing fitness (ln) (37 °C): -0.672 ± 0.13

**Q.** Which “self-splicing fitness (ln)” value (30 °C) does the source give for UUUUAGCAAUAUUACGCGCU here?
**A.** -2.57 ± 0.25

**Q.** And the “self-splicing fitness (ln)” value (37 °C)?
**A.** -0.994 ± 0.21

**Q.** For UUUUAGCAAUAUUACGGAAA, which “self-splicing fitness (ln)” value (30 °C) is on record?
**A.** -1.73 ± 0.23

**Q.** And the “self-splicing fitness (ln)” value (37 °C)?
**A.** -1.14 ± 0.34

**Q.** For UUUUAGCAAUAUUACGGGCG, which “self-splicing fitness (ln)” value (30 °C) is on record?
**A.** -0.356 ± 0.12

**Q.** And the “self-splicing fitness (ln)” value (37 °C)?
**A.** -0.216 ± 0.19

**Q.** For UUUUAGCAAUAUUACGGGUG, which “self-splicing fitness (ln)” value (30 °C) is on record?
**A.** -1.65 ± 0.11

**Q.** And the “self-splicing fitness (ln)” value (37 °C)?
**A.** -0.739 ± 0.14

**Q.** Which results are given for UUUUAGCAAUAUUACGGUGA?
**A.** self-splicing fitness (ln) (30 °C): -0.38 ± 0.15; self-splicing fitness (ln) (37 °C): 0.0249 ± 0.14

**Q.** With UUUUAGCAAUAUUACGUAAU as the sequence, how does the “self-splicing fitness (ln)” value (30 °C) read?
**A.** -3.62 ± 0.28

**Q.** What about the “self-splicing fitness (ln)” value (37 °C) of the same sequence?
**A.** -1.6 ± 0.22

**Q.** Which “self-splicing fitness (ln)” value (30 °C) does the source give for UUUUAGCAAUAUUACGUAUG here?
**A.** -2.01 ± 0.19

**Q.** What about the “self-splicing fitness (ln)” value (37 °C) of the same sequence?
**A.** -0.735 ± 0.2

**Q.** Which results are given for UUUUAGCAAUAUUACGUCAA?
**A.** self-splicing fitness (ln) (30 °C): -2.59 ± 0.17; self-splicing fitness (ln) (37 °C): -1.34 ± 0.13

**Q.** What does the source list for UUUUAGCAAUAUUACGUCCG?
**A.** self-splicing fitness (ln) (30 °C): -2.37 ± 0.34; self-splicing fitness (ln) (37 °C): 0.963 ± 0.33

**Q.** With UUUUAGCAAUAUUACGUCCU as the sequence, how does the “self-splicing fitness (ln)” value (37 °C) read?
**A.** 0.494 ± 0.32

**Q.** With UUUUAGCAAUAUUACGUGCA as the sequence, how does the “self-splicing fitness (ln)” value (30 °C) read?
**A.** -2.12 ± 0.17

**Q.** And the “self-splicing fitness (ln)” value (37 °C)?
**A.** -1.11 ± 0.18

**Q.** Which “self-splicing fitness (ln)” value (30 °C) does the source give for UUUUAGCAAUAUUACGUGGC here?
**A.** -3.09 ± 0.42

**Q.** For UUUUAGCAAUAUUACGUGGU, which “self-splicing fitness (ln)” value (30 °C) is on record?
**A.** -3.72 ± 0.35

**Q.** And the “self-splicing fitness (ln)” value (37 °C)?
**A.** -3.24 ± 0.42

**Q.** Which “self-splicing fitness (ln)” value (37 °C) does the source give for UUUUAGCAAUAUUACGUUGA here?
**A.** -1.8 ± 0.36

**Q.** Which “self-splicing fitness (ln)” value (30 °C) does the source give for UUUUAGCAAUAUUACGUUGG here?
**A.** -2.07 ± 0.21

**Q.** And the “self-splicing fitness (ln)” value (37 °C)?
**A.** -2.23 ± 0.32
